Laboratory results: patent US20230051715A1 (MABWELL THERAPEUTICS, published 2023)

T1: human C1s mutant M2 (M277I & K331Q) (human, UniProt P09871 16-688)
T1 construct: The entry is the mutant itself
T1 sequence: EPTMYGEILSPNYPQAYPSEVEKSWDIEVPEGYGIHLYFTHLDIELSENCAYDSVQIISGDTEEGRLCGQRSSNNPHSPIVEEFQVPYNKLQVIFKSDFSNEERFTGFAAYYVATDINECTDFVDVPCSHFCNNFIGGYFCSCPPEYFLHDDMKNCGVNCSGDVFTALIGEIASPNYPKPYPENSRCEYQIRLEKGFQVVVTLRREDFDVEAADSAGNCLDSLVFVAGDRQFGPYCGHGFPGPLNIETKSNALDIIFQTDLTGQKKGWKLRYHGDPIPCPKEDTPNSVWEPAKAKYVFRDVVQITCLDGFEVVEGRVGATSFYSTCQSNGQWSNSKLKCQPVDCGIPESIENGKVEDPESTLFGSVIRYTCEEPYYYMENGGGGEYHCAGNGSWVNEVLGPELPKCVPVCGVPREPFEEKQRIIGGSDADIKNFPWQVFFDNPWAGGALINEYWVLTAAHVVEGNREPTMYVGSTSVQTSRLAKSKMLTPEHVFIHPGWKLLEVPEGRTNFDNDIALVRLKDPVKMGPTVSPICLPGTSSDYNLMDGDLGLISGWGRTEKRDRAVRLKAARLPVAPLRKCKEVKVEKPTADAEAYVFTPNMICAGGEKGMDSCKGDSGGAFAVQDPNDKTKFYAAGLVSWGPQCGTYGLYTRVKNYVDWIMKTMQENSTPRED

T2: human C1s mutant M8 (E351A) (human, UniProt P09871 16-688)
T2 construct: The entry is the mutant itself
T2 sequence: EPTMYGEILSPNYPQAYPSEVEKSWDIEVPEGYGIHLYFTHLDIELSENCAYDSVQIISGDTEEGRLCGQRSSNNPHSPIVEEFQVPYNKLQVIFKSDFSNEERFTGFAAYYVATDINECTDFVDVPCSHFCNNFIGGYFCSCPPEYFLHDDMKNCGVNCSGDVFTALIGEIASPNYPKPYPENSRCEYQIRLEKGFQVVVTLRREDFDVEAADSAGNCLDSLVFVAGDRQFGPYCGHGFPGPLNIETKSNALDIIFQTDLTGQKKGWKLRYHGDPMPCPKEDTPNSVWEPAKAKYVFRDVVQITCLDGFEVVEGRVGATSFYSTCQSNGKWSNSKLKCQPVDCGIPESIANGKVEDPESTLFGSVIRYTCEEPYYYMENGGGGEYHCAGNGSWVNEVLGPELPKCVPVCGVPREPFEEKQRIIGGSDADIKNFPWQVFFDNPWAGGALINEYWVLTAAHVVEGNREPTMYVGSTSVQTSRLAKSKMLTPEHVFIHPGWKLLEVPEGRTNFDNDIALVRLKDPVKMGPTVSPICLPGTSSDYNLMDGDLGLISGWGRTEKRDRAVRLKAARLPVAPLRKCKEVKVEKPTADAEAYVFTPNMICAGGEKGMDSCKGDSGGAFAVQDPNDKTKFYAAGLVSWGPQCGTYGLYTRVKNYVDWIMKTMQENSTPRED

B1: Anti-C1s antibody hz2-8 (H1L2 G80A) (antibody, V domains shown)
VH: QVQLVQSGAEVKKPGASVKVSCKASGFNIKEYYMHWVRQAPEQGLEWMGWIDPENADTIYAQKFQGRVTITADTSTNTAYMELSSLRSEDTAVYYCARSRLFFAYWGQGTLVTVSS
VL: DIQMTQSPKSLSASVGDRVTITCRASQDVRTALDWYQQKPGQSPKLLIYSASYRYSGVPSRFSGSGSGTDFTLTISSLQPEDFATYYCQQQYTTPYTFGQGTKLEIKR
notes: Humanized variant with G80A in HC CDR2 (already in the entry), human IgG1 / kappa
B2: Anti-C1s antibody hz2-8 (H1L2 G80A/T82A) (antibody, V domains shown)
VH: QVQLVQSGAEVKKPGASVKVSCKASGFNIKEYYMHWVRQAPEQGLEWMGWIDPENADAIYAQKFQGRVTITADTSTNTAYMELSSLRSEDTAVYYCARSRLFFAYWGQGTLVTVSS
VL: DIQMTQSPKSLSASVGDRVTITCRASQDVRTALDWYQQKPGQSPKLLIYSASYRYSGVPSRFSGSGSGTDFTLTISSLQPEDFATYYCQQQYTTPYTFGQGTKLEIKR
notes: Humanized variant with G80A and T82A in HC CDR2 (already in the entry), human IgG1 / kappa
B3: Anti-C1s antibody hz2-7(H1L2) (antibody, V domains shown)
VH: EVQLLESGGGLVQPGGSLRLSCAASGFTFSNYFMNWVRQAPGKGLEWVSEIRLKFTNYATHYADSVKGRFTISRDDSKSTLYLQMNSLRAEDTAVYYCTRDYGSRNGYFDYWGQGTLVTVSS
VL: DIVMTQTPLSLPVTPGEPASISCRSSKSLLHSNGNTFLYWFLQKPGQSPQLLIYRMSNLASGVPDRFSGSGSGTDFTLKISRVEAEDVGVYYCMQHLEYPYTFGGGTKLEIKR
notes: Humanized, human IgG1 / kappa; also called hz2-7(1L2)

How the values were obtained:
[1] = molecular target: T1, human C1s mutant M2 (M277I & K331Q); experiment: ELISA, plate coated with human C1s mutant M2: M277I, K331Q, OD450nm
Method: (§1) ELISA was carried out by first coating 96-well plates with 200 ng/well of full-length or truncated C1s proteins overnight. The next morning, plates were blocked with SuperBlock T20 blocking buffer (Thermo Scientific 37536) for 1 h with gentle shaking. Then, various concentrations of anti-C1s antibodies diluted in SuperBlock T20 blocking buffer were added to the plates and incubated for 1 h with gentle shaking. Mouse IgG (Sigma-Aldrich 15381) and human IgG1 (BioXCell BP0297) were used as negative controls. The plates were washed before incubating with HRP conjugated secondary antibodies diluted in SuperBlock T20 blocking buffer (goat anti-mouse IgG (H+L) cross-adsorbed secondary antibody HRP (Invitrogen G-21040) or goat anti-human IgG antibody, HRP conjugate (Millipore AP309P)) for 1 h with gentle shaking. At last, the plates were washed and color developed with ELISA liquid HRP substrate (Sigma-Aldrich), followed by stopping the reaction with addition of 1M H₂SO₄ in the same volume as the ELISA liquid substrate. Bound antibody was measured by absorbance at OD₄₅₀ₙₘ.
(§2) Binding of anti-C1s antibodies to mutants M1-M20 of human C1s was measured by ELISA as described in Example 4, and results are shown in FIGS. 6B-6U. All anti-C1s humanized variants including hz2-7(H1L2), hz2-8(H1L2 G80A) and hz2-8(H1L2 G80A/T82A) maintained strong binding properties to the majority (16 out of 20) of C1s mutants including M1 (FIG. 6B), M2 (FIG. 6C), M3 (FIG. 6D). M4 (FIG. 6E), M7 (FIG. 6H), M8 (FIG. 6I), M10 (FIG. 6K), M11 (FIG. 6L), M12 (FIG. 6M), M13 (FIG. 6N), M15 (FIG. 6P), M16 (FIG. 6Q), M17 (FIG. 6R), M18 (FIG. 6S), M19 (FIG. 6T) and M20 (FIG. 6U).

[2] = molecular target: T2, human C1s mutant M8 (E351A); experiment: ELISA, plate coated with human C1s mutant M8: E351A, OD450nm
Method: as §1, §2

Row | EC50 [1] | EC50 [2] | Binder
1 | 7 ng/mL | 10 ng/mL | B1
2 | 6 ng/mL | 11 ng/mL | B2
3 | 9 ng/mL | 16 ng/mL | B3
